22 molecules from US20260297205 (published 2026) can be followed below.

This experiment addresses human growth hormone (GH) (human, UniProt P01241). In words: SPR, 20C. On the technique in general: Surface plasmon resonance follows binding to a sensor surface in real time, without labels.

Chain of human growth hormone (GH) (P01241 27-217): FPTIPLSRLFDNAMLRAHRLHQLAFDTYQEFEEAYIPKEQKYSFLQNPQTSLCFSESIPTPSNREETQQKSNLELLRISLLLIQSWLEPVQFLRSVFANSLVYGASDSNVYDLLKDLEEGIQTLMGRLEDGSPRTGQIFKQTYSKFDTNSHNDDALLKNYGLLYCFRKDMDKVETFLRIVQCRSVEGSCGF

B1: GH35 (antibody, V domains shown)
VH: EVQLVESGGGLVQPGGSLRLSCAASGFNVYYSSIHWVRQAPGKGLEWVASIYSYSGYTSYADSVKGRFTISADTSKNTAYLQMNSLRAEDTAVYYCARWSYKAMDYWGQGTLVTV
VL: DIQMTQSPSSLSASVGDRVTITCRASQSVSSAVAWYQQKPGKAPKLLIYSASSLYSGVPSRFSGSRSGTDFTLTISSLQPEDFATYYCQQDYYAPITFGQGTKVEIKR
The term Kd denotes a measure of binding affinity in units of concentration. Read a low Kd as tighter binding. B1: the Kd amounted to 14 nM.

B2: GH4 (antibody, V domains shown)
VH: EVQLVESGGGLVQPGGSLRLSCAASGFNVSSSYIHWVRQAPGKGLEWVASIYSSYGYTSYADSVKGRFTISADTSKNTAYLQMNSLRAEDTAVYYCARESWGSGYYTWAMDYWGQGTLVTV
VL: DIQMTQSPSSLSASVGDRVTITCRASQSVSSAVAWYQQKPGKAPKLLIYSASSLYSGVPSRFSGSRSGTDFTLTISSLQPEDFATYYCQQSWRYPFTFGQGTKVEIKR
In the case of B2, the Kd amounted to 5.4 nM.

B3: GH24 (antibody, V domains shown)
VH: EVQLVESGGGLVQPGGSLRLSCAASGFNVSSSSIHWVRQAPGKGLEWVASIYSSYGYTSYADSVKGRFTISADTSKNTAYLQMNSLRAEDTAVYYCARGDRYVWAMDYWGQGTLVTV
VL: DIQMTQSPSSLSASVGDRVTITCRASQSVSSAVAWYQQKPGKAPKLLIYSASSLYSGVPSRFSGSRSGTDFTLTISSLQPEDFATYYCQQSSSYPFTFGQGTKVEIKR
As for B3, binding was put at a Kd of 1.3 nM.

B4: GH15 (antibody, V domains shown)
VH: EVQLVESGGGLVQPGGSLRLSCAASGFNVSSSYIHWVRQAPGKGLEWVASIYSYSGYTSYADSVKGRFTISADTSKNTAYLQMNSLRAEDTAVYYCARTSYGRGALDYWGQGTLVTV
VL: DIQMTQSPSSLSASVGDRVTITCRASQSVSSAVAWYQQKPGKAPKLLIYSASSLYSGVPSRFSGSRSGTDFTLTISSLQPEDFATYYCQQWSWYPITFGQGTKVEIKR
Molecule B4 returned a Kd of 3.9 nM.

B5: GH20 (antibody, V domains shown)
VH: EVQLVESGGGLVQPGGSLRLSCAASGFNVSSSYIHWVRQAPGKGLEWVASIYSYSGYTSYADSVKGRFTISADTSKNTAYLQMNSLRAEDTAVYYCARYKWYAMDYWGQGTLVTV
VL: DIQMTQSPSSLSASVGDRVTITCRASQSVSSAVAWYQQKPGKAPKLLIYSASSLYSGVPSRFSGSRSGTDFTLTISSLQPEDFATYYCQQSSWYPITFGQGTKVEIKR
In turn, B5 registered an equilibrium dissociation constant (Kd) of 1.9 nM.

B6: GH38 (antibody, V domains shown)
VH: EVQLVESGGGLVQPGGSLRLSCAASGFNVYSSSIHWVRQAPGKGLEWVASIYPSYGYTSYADSVKGRFTISADTSKNTAYLQMNSLRAEDTAVYYCARWHWGWGSYGWGMDYWGQGTLVTV
VL: DIQMTQSPSSLSASVGDRVTITCRASQSVSSAVAWYQQKPGKAPKLLIYSASSLYSGVPSRFSGSRSGTDFTLTISSLQPEDFATYYCQQQWYVPITFGQGTKVEIKR
Consider B6, for which binding was characterised by a dissociation constant (Kd) of 8.1 nM.

B7: GH33 (antibody, V domains shown)
VH: EVQLVESGGGLVQPGGSLRLSCAASGFNFYSSYIHWVRQAPGKGLEWVASIYSYSGYTSYADSVKGRFTISADTSKNTAYLQMNSLRAEDTAVYYCARYWYYYNGMDYWGQGTLVTV
VL: DIQMTQSPSSLSASVGDRVTITCRASQSVSSAVAWYQQKPGKAPKLLIYSASSLYSGVPSRFSGSRSGTDFTLTISSLQPEDFATYYCQQIRYVPITFGQGTKVEIKR
For B7, the Kd is 5.8 nM.

B8: GH14 (antibody, V domains shown)
VH: EVQLVESGGGLVQPGGSLRLSCAASGFNFYSSSIHWVRQAPGKGLEWVASIYSYYGYTSYADSVKGRFTISADTSKNTAYLQMNSLRAEDTAVYYCARSGGYIGFDYWGQGTLVTV
VL: DIQMTQSPSSLSASVGDRVTITCRASQSVSSAVAWYQQKPGKAPKLLIYSASSLYSGVPSRFSGSRSGTDFTLTISSLQPEDFATYYCQQYWEYPFTFGQGTKVEIKR
The molecule B8 displayed a Kd of 0.7 nM.

B9: GH3 (antibody, V domains shown)
VH: EVQLVESGGGLVQPGGSLRLSCAASGFNVSSSSIHWVRQAPGKGLEWVAYISSYYGYTSYADSVKGRFTISADTSKNTAYLQMNSLRAEDTAVYYCAREGWYWWAMDYWGQGTLVTV
VL: DIQMTQSPSSLSASVGDRVTITCRASQSVSSAVAWYQQKPGKAPKLLIYSASSLYSGVPSRFSGSRSGTDFTLTISSLQPEDFATYYCQQAWYLPITFGQGTKVEIKR
Take B9: the affinity, expressed as Kd, was 21 nM.

B10: GH22 (antibody, V domains shown)
VH: EVQLVESGGGLVQPGGSLRLSCAASGFNFSSSYIHWVRQAPGKGLEWVASIYSYSGYTSYADSVKGRFTISADTSKNTAYLQMNSLRAEDTAVYYCARYRFIGAMDYWGQGTLVTV
VL: DIQMTQSPSSLSASVGDRVTITCRASQSVSSAVAWYQQKPGKAPKLLIYSASSLYSGVPSRFSGSRSGTDFTLTISSLQPEDFATYYCQQSHWSPITFGQGTKVEIKR
In turn, B10 showed an equilibrium dissociation constant (Kd) of 1.1 nM.

B11: GH32 (antibody, V domains shown)
VH: EVQLVESGGGLVQPGGSLRLSCAASGFNFYSSYIHWVRQAPGKGLEWVASIYSYSGYTSYADSVKGRFTISADTSKNTAYLQMNSLRAEDTAVYYCARYKYMGMDYWGQGTLVTV
VL: DIQMTQSPSSLSASVGDRVTITCRASQSVSSAVAWYQQKPGKAPKLLIYSASSLYSGVPSRFSGSRSGTDFTLTISSLQPEDFATYYCQQSSWMPITFGQGTKVEIKR
Take B11: the Kd worked out at 17 nM.

B12: GH16 (antibody, V domains shown)
VH: EVQLVESGGGLVQPGGSLRLSCAASGFNLSSYYIHWVRQAPGKGLEWVASIYPSYGYTSYADSVKGRFTISADTSKNTAYLQMNSLRAEDTAVYYCARWGKWYGYPFSGLDYWGQGTLVTV
VL: DIQMTQSPSSLSASVGDRVTITCRASQSVSSAVAWYQQKPGKAPKLLIYSASSLYSGVPSRFSGSRSGTDFTLTISSLQPEDFATYYCQQDWYFPITFGQGTKVEIKR
For B12, binding was put at a Kd of 3.4 nM.

B13: GH2 (antibody, V domains shown)
VH: EVQLVESGGGLVQPGGSLRLSCAASGFNVSSSYIHWVRQAPGKGLEWVASIYSYYGYTSYADSVKGRFTISADTSKNTAYLQMNSLRAEDTAVYYCARENYGNWRSMYSGMDYWGQGTLVTV
VL: DIQMTQSPSSLSASVGDRVTITCRASQSVSSAVAWYQQKPGKAPKLLIYSASSLYSGVPSRFSGSRSGTDFTLTISSLQPEDFATYYCQQSYFLPFTFGQGTKVEIKR
B13: binding was put at a Kd of 0.9 nM.

B14: GH21 (antibody, V domains shown)
VH: EVQLVESGGGLVQPGGSLRLSCAASGFNVSSSYIHWVRQAPGKGLEWVASIYSYSGYTSYADSVKGRFTISADTSKNTAYLQMNSLRAEDTAVYYCARYMYYAMDYWGQGTLVTV
VL: DIQMTQSPSSLSASVGDRVTITCRASQSVSSAVAWYQQKPGKAPKLLIYSASSLYSGVPSRFSGSRSGTDFTLTISSLQPEDFATYYCQQSSWSPITFGQGTKVEIKR
Consider B14, for which the Kd worked out at 7.5 nM.

B15: GH11 (antibody, V domains shown)
VH: EVQLVESGGGLVQPGGSLRLSCAASGFNIYSSSIHWVRQAPGKGLEWVASISSSSGSTSYADSVKGRFTISADTSKNTAYLQMNSLRAEDTAVYYCARKYSGYYSNWYYPALDYWGQGTLVTV
VL: DIQMTQSPSSLSASVGDRVTITCRASQSVSSAVAWYQQKPGKAPKLLIYSASSLYSGVPSRFSGSRSGTDFTLTISSLQPEDFATYYCQQSSSSLITFGQGTKVEIKR
Molecule B15 yielded a Kd of 0.3 nM.

B16: GH12 (antibody, V domains shown)
VH: EVQLVESGGGLVQPGGSLRLSCAASGFNLSSSYIHWVRQAPGKGLEWVASIYPYSGYTSYADSVKGRFTISADTSKNTAYLQMNSLRAEDTAVYYCARMYWTGALDYWGQGTLVTV
VL: DIQMTQSPSSLSASVGDRVTITCRASQSVSSAVAWYQQKPGKAPKLLIYSASSLYSGVPSRFSGSRSGTDFTLTISSLQPEDFATYYCQQSSYSPITFGQGTKVEIKR
B16 returned a Kd of 0.08 nM.

B17: GH1 (antibody, V domains shown)
VH: EVQLVESGGGLVQPGGSLRLSCAASGFNFYYSSIHWVRQAPGKGLEWVAYIYSYSGYTSYADSVKGRFTISADTSKNTAYLQMNSLRAEDTAVYYCARYSWWGGMDYWGQGTLVTV
VL: DIQMTQSPSSLSASVGDRVTITCRASQSVSSAVAWYQQKPGKAPKLLIYSASSLYSGVPSRFSGSRSGTDFTLTISSLQPEDFATYYCQQSYSVPITFGQGTKVEIKR
Molecule B17 came in with a Kd of 1.5 nM.

B18: GH6 (antibody, V domains shown)
VH: EVQLVESGGGLVQPGGSLRLSCAASGFNVSYSSIHWVRQAPGKGLEWVASIYSSYGYTSYADSVKGRFTISADTSKNTAYLQMNSLRAEDTAVYYCARGHGSMWAMDYWGQGTLVTV
VL: DIQMTQSPSSLSASVGDRVTITCRASQSVSSAVAWYQQKPGKAPKLLIYSASSLYSGVPSRFSGSRSGTDFTLTISSLQPEDFATYYCQQSWSLPFTFGQGTKVEIKR
In the case of B18, the Kd came to 0.04 nM.

B19: GH13 (antibody, V domains shown)
VH: EVQLVESGGGLVQPGGSLRLSCAASGFNFSSSSIHWVRQAPGKGLEWVASISSYYSSTYYADSVKGRFTISADTSKNTAYLQMNSLRAEDTAVYYCARQYTSPWHWYKAMDYWGQGTLVTV
VL: DIQMTQSPSSLSASVGDRVTITCRASQSVSSAVAWYQQKPGKAPKLLIYSASSLYSGVPSRFSGSRSGTDFTLTISSLQPEDFATYYCQQSSSSLITFGQGTKVEIKR
For B19, the Kd was found to be 0.3 nM.

B20: GH5 (antibody, V domains shown)
VH: EVQLVESGGGLVQPGGSLRLSCAASGFNVSSYYIHWVRQAPGKGLEWVASIYSYYGYTSYADSVKGRFTISADTSKNTAYLQMNSLRAEDTAVYYCARGDNYSWAMDYWGQGTLVTV
VL: DIQMTQSPSSLSASVGDRVTITCRASQSVSSAVAWYQQKPGKAPKLLIYSASSLYSGVPSRFSGSRSGTDFTLTISSLQPEDFATYYCQQSWQYPFTFGQGTKVEIKR
B20 returned a Kd of 4.9 nM.

B21: GH34 (antibody, V domains shown)
VH: EVQLVESGGGLVQPGGSLRLSCAASGFNFSYSSIHWVRQAPGKGLEWVASIYPSYGYTSYADSVKGRFTISADTSKNTAYLQMNSLRAEDTAVYYCARYYYFGMDYWGQGTLVTV
VL: DIQMTQSPSSLSASVGDRVTITCRASQSVSSAVAWYQQKPGKAPKLLIYSASSLYSGVPSRFSGSRSGTDFTLTISSLQPEDFATYYCQQSWSMPLTFGQGTKVEIKR
In turn, B21 showed a Kd of 20 nM.

B22: GH7 (antibody, V domains shown)
VH: EVQLVESGGGLVQPGGSLRLSCAASGFNVYSSSIHWVRQAPGKGLEWVASIYSYSGYTSYADSVKGRFTISADTSKNTAYLQMNSLRAEDTAVYYCARGRYSWFALDYWGQGTLVTV
VL: DIQMTQSPSSLSASVGDRVTITCRASQSVSSAVAWYQQKPGKAPKLLIYSASSLYSGVPSRFSGSRSGTDFTLTISSLQPEDFATYYCQQYWSFPITFGQGTKVEIKR
The molecule B22 came in with a Kd of 6.1 nM.
